Assay results reported in publication PMC4218953.
pKd: −log10 of the molar value. Each block holds one substance with its values, some of them ahead of it.

Assays:
[1] = target: double-labelled SecYEG(Bpy/Trp) (E. coli) (UniProt P0AGA2)
[2] = target: double-labelled SecYEG(Bpy/Trp) (E. coli) (UniProt P0AGA2); remark: listed apart in the source
[3] = target: SecYEG translocon embedded in nanodiscs, labelled for FRET titrations (E. coli) (UniProt P0AGA2); experiment: FRET or BRET; titration monitoring FRET between labels in the translocon and the ribosome, at the lower temperature (4 °C)
[4] = target: SecYEG translocon embedded in nanodiscs, labelled for FRET titrations (E. coli) (UniProt P0AGA2); experiment: FRET or BRET; titration of nanodisc-embedded translocon with vacant ribosomes or Lep75-RNC (Supplementary Fig. 3); FRET between labels in the translocon and the ribosome is told for panel c; buffer A (20 mM HEPES pH 7.5, 70 mM NH4Cl, 30 mM KCl, 7 mM MgCl2, 10% glycerol), 25 °C

DsbA100-RNC, sequence (P0AEG4 whole entry, looked up): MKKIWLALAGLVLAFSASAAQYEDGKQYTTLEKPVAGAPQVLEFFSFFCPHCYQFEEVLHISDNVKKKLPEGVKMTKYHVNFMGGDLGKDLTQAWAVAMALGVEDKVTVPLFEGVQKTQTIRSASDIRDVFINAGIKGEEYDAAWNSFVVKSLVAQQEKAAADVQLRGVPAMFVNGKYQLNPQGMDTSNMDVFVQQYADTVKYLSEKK

- increase of Bpy fluorescence of nanodisc-embedded SecYEG(Bpy/Trp) (50 nM) on addition of vacant 70S ribosomes (200 nM), 25 °C (loss of PET quenching, lateral gate opening) [1]: 15%
- increase of Bpy fluorescence of SecYEG(Bpy/Trp) solubilised with detergent (0.03% DDM, no nanodisc) on addition of non-translating ribosomes, 25 °C [2]: 15%
- pKd [3]: 8.00
- pKd [4]: 7.70
Substance: vacant 70S ribosomes from E. coli MRE600 (complex)

- increase of Bpy fluorescence of nanodisc-embedded SecYEG(Bpy/Trp) (50 nM) on addition of DsbA100-RNC (200 nM), 25 °C [2]: > 20%
Substance: DsbA100-RNC (from UniProt P0AEG4 1-208) (complex)

- increase of Bpy fluorescence of nanodisc-embedded SecYEG(Bpy/Trp) (50 nM) on addition of Lep75-RNC (200 nM), 25 °C (loss of PET quenching, lateral gate opening) [1]: 30%
- net increase of Bpy fluorescence of SecYEG(Bpy/Trp) on Lep75-RNC binding, after the change seen with single-labelled SecYEG(Bpy), 25 °C [1]: 25%
- pKd [4]: 8.00
Substance: Lep75-RNC (ribosome-nascent-chain complex carrying 75 N-terminal amino acids of leader peptidase) (from UniProt P00803 1-75)

- increase of Bpy fluorescence of nanodisc-embedded SecYEG(Bpy/Trp) (50 nM) on addition of TolB100-RNC (200 nM), 25 °C [2]: > 20%
Substance: TolB100-RNC (from UniProt P0A855 1-430) (complex)
